Measurements: the supplement of paper PMC9112550, “Optimization of the antimicrobial peptide Bac7 by deep mutational scanning” (BMC Biology, 2022)

Tested on: Escherichia coli TOP10
Experiment: shrunken log2 fold change of peptide-encoding DNA abundance (4.5 h post-induction vs induction); higher = less antimicrobial activity (less host growth inhibition)
Settings: time post-induction: 4.5 h; library: site-saturation at positions 5, 18, 19, 20
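Also: peptides expressed intracellularly from a pBAD plasmid library in pooled LB shake-flask culture, induced with 0.3% L-arabinose, DNA abundance read by NGS, three biological replicates, DESeq2 with apeglm shrinkage.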

| Sequence | shrunken log2 fold change |
| --- | --- |
| RRIRMRPPRLPRPRPRPSKYPRP | -0.166 |
| RRIRGRPPRLPRPRPRPTAFPRP | 1.19 |
| RRIRERPPRLPRPRPRPWMSPRP | -0.0212 |
| RRIRIRPPRLPRPRPRPEYIPRP | -0.667 |
| RRIRGRPPRLPRPRPRPNPEPRP | 0.511 |
| RRIRGRPPRLPRPRPRPGHQPRP | 0.124 |
| RRIRDRPPRLPRPRPRPCHAPRP | -0.0662 |
| RRIRKRPPRLPRPRPRPNWAPRP | 0.279 |
| RRIRYRPPRLPRPRPRPFKRPRP | -0.294 |
| RRIRGRPPRLPRPRPRPWVIPRP | -0.257 |
| RRIRGRPPRLPRPRPRPYEAPRP | 0.045 |
| RRIRTRPPRLPRPRPRPDQVPRP | -0.272 |
| RRIRMRPPRLPRPRPRPEAQPRP | 3.76 |
| RRIRTRPPRLPRPRPRPKAYPRP | 0.0161 |
| RRIRWRPPRLPRPRPRPFNVPRP | -0.114 |
| RRIRYRPPRLPRPRPRPSDQPRP | -0.235 |
| RRIRGRPPRLPRPRPRPTQAPRP | 1.37 |
| RRIRARPPRLPRPRPRPQILPRP | -0.0605 |
| RRIRMRPPRLPRPRPRPMMNPRP | -0.0818 |
| RRIRWRPPRLPRPRPRPNIPPRP | -0.476 |
| RRIRLRPPRLPRPRPRPLPWPRP | 0.334 |
| RRIRWRPPRLPRPRPRPNASPRP | 0.267 |
| RRIRIRPPRLPRPRPRPFIAPRP | -0.719 |
| RRIRIRPPRLPRPRPRPCHKPRP | -0.16 |
| RRIRNRPPRLPRPRPRPMCPPRP | -0.0135 |

| Sequence | shrunken log2 fold change |
| --- | --- |
| RRIRNRPPRLPRPRPRPEFWPRP | 0.0698 |
| RRIRQRPPRLPRPRPRPIFKPRP | -0.208 |
| RRIRNRPPRLPRPRPRPWRMPRP | 0.0039 |
| RRIRYRPPRLPRPRPRPKFSPRP | -0.434 |
| RRIRQRPPRLPRPRPRPAQAPRP | 0.0255 |
| RRIRSRPPRLPRPRPRPWTKPRP | -0.137 |
| RRIRCRPPRLPRPRPRPAKNPRP | 0.00465 |
| RRIRYRPPRLPRPRPRPNYKPRP | -1.01 |
| RRIRWRPPRLPRPRPRPFFIPRP | -0.309 |
| RRIRYRPPRLPRPRPRPIYEPRP | 0.0166 |
| RRIRWRPPRLPRPRPRPCYFPRP | -0.0204 |
| RRIRLRPPRLPRPRPRPPTTPRP | 0.449 |
| RRIRHRPPRLPRPRPRPMPYPRP | -0.00164 |
| RRIRIRPPRLPRPRPRPHAFPRP | -0.0152 |
| RRIRKRPPRLPRPRPRPTEMPRP | 0.25 |
| RRIRWRPPRLPRPRPRPWPAPRP | 0.62 |
| RRIRHRPPRLPRPRPRPGENPRP | -0.00146 |
| RRIRTRPPRLPRPRPRPFILPRP | -0.276 |
| RRIRKRPPRLPRPRPRPWYLPRP | 0.0253 |
| RRIRQRPPRLPRPRPRPMAAPRP | 0.127 |
| RRIRTRPPRLPRPRPRPLYWPRP | -0.559 |
| RRIRQRPPRLPRPRPRPCDCPRP | -0.0243 |
| RRIRTRPPRLPRPRPRPVLDPRP | -0.0579 |
| RRIRERPPRLPRPRPRPLMFPRP | -0.32 |
| RRIRYRPPRLPRPRPRPLTSPRP | -0.853 |

| Sequence | shrunken log2 fold change |
| --- | --- |
| RRIRARPPRLPRPRPRPMRLPRP | 1.29 |
| RRIRQRPPRLPRPRPRPDSYPRP | -0.127 |
| RRIRRRPPRLPRPRPRPRERPRP | 1.02 |
| RRIRSRPPRLPRPRPRPWPWPRP | 0.0913 |
| RRIRFRPPRLPRPRPRPMGAPRP | -0.0556 |
| RRIRERPPRLPRPRPRPVTDPRP | -0.069 |
| RRIRQRPPRLPRPRPRPKCYPRP | -0.234 |
| RRIRFRPPRLPRPRPRPLHAPRP | 0.0292 |
| RRIRNRPPRLPRPRPRPQNFPRP | 0.0364 |
| RRIRQRPPRLPRPRPRPKADPRP | 0.143 |
| RRIRIRPPRLPRPRPRPVFMPRP | -0.275 |
| RRIRTRPPRLPRPRPRPQVTPRP | 0.304 |
| RRIRTRPPRLPRPRPRPGYYPRP | -0.442 |
| RRIRIRPPRLPRPRPRPTQVPRP | 0.00035 |
| RRIRFRPPRLPRPRPRPEYAPRP | -0.14 |
| RRIRYRPPRLPRPRPRPVNKPRP | -0.0557 |
| RRIRYRPPRLPRPRPRPATEPRP | 0.0247 |
| RRIRIRPPRLPRPRPRPDCAPRP | -0.0601 |
| RRIRWRPPRLPRPRPRPFHAPRP | 0.0472 |
| RRIRGRPPRLPRPRPRPPLAPRP | 1.35 |
| RRIRERPPRLPRPRPRPMLRPRP | -0.0352 |
| RRIRARPPRLPRPRPRPQCGPRP | 0.436 |
| RRIRCRPPRLPRPRPRPRGVPRP | 0.69 |
| RRIRFRPPRLPRPRPRPACFPRP | 0.0876 |
| RRIRYRPPRLPRPRPRPHPDPRP | -0.299 |

| Sequence | shrunken log2 fold change |
| --- | --- |
| RRIRCRPPRLPRPRPRPSEVPRP | -0.328 |
| RRIRVRPPRLPRPRPRPCGGPRP | -0.0341 |
| RRIRNRPPRLPRPRPRPPDFPRP | 0.272 |
| RRIRQRPPRLPRPRPRPRLGPRP | 0.272 |
| RRIRERPPRLPRPRPRPNLDPRP | -0.289 |
| RRIRYRPPRLPRPRPRPQKLPRP | -0.418 |
| RRIRWRPPRLPRPRPRPRRCPRP | 0.224 |
| RRIRQRPPRLPRPRPRPVGAPRP | 0.489 |
| RRIRQRPPRLPRPRPRPHWHPRP | -0.465 |
| RRIRIRPPRLPRPRPRPRNNPRP | -0.355 |
| RRIRDRPPRLPRPRPRPVACPRP | 0.35 |
| RRIRRRPPRLPRPRPRPINMPRP | -0.271 |
| RRIRLRPPRLPRPRPRPSQWPRP | 0.0987 |
| RRIRGRPPRLPRPRPRPAPYPRP | 0.218 |
| RRIRERPPRLPRPRPRPNHEPRP | 0.0522 |
| RRIRRRPPRLPRPRPRPEDLPRP | -0.00437 |
| RRIRNRPPRLPRPRPRPDDVPRP | -0.0233 |
| RRIRNRPPRLPRPRPRPGGIPRP | -0.109 |
| RRIRYRPPRLPRPRPRPLIRPRP | -0.85 |
| RRIRMRPPRLPRPRPRPLSFPRP | 0.102 |
| RRIRRRPPRLPRPRPRPSSPPRP | 0.00935 |
| RRIRWRPPRLPRPRPRPDMDPRP | 0.0441 |
| RRIRARPPRLPRPRPRPPNGPRP | -0.00234 |
| RRIRPRPPRLPRPRPRPEFYPRP | -0.173 |
| RRIRHRPPRLPRPRPRPWLCPRP | 0.111 |

| Sequence | shrunken log2 fold change |
| --- | --- |
| RRIRARPPRLPRPRPRPVMRPRP | 0.292 |
| RRIRFRPPRLPRPRPRPRTSPRP | 0.223 |
| RRIRQRPPRLPRPRPRPGCLPRP | 0.129 |
| RRIRQRPPRLPRPRPRPNAAPRP | 0.0416 |
| RRIRNRPPRLPRPRPRPEHRPRP | -0.226 |
| RRIRDRPPRLPRPRPRPYYLPRP | -0.134 |
| RRIRGRPPRLPRPRPRPNLLPRP | 0.485 |
| RRIRDRPPRLPRPRPRPTMVPRP | 0.028 |
| RRIRVRPPRLPRPRPRPLRDPRP | 0.725 |
| RRIRPRPPRLPRPRPRPFKFPRP | -0.469 |
| RRIRRRPPRLPRPRPRPREWPRP | 1.03 |
| RRIRIRPPRLPRPRPRPSIAPRP | -0.628 |
| RRIRWRPPRLPRPRPRPALHPRP | 0.277 |
| RRIRGRPPRLPRPRPRPYTTPRP | -0.083 |
| RRIRMRPPRLPRPRPRPEQTPRP | 0.057 |
| RRIRSRPPRLPRPRPRPKYSPRP | -0.253 |
| RRIRMRPPRLPRPRPRPEWYPRP | 0.0183 |
| RRIRMRPPRLPRPRPRPEGQPRP | -0.00185 |
| RRIRLRPPRLPRPRPRPSLVPRP | -0.0388 |
| RRIRWRPPRLPRPRPRPLHNPRP | -0.116 |
| RRIRLRPPRLPRPRPRPTRYPRP | 0.0777 |
| RRIRTRPPRLPRPRPRPTAGPRP | 0.59 |
| RRIRARPPRLPRPRPRPDTYPRP | -0.11 |
| RRIRMRPPRLPRPRPRPTIAPRP | 0.26 |
| RRIRTRPPRLPRPRPRPDKHPRP | -0.551 |

| Sequence | shrunken log2 fold change |
| --- | --- |
| RRIRNRPPRLPRPRPRPAKIPRP | -0.405 |
| RRIRIRPPRLPRPRPRPGQFPRP | -0.0255 |
| RRIRVRPPRLPRPRPRPQIIPRP | -0.299 |
| RRIRRRPPRLPRPRPRPTECPRP | 0.0801 |
| RRIRIRPPRLPRPRPRPWCRPRP | -0.521 |
| RRIRQRPPRLPRPRPRPQEMPRP | -0.119 |
| RRIRPRPPRLPRPRPRPQHGPRP | -0.189 |
| RRIRGRPPRLPRPRPRPNENPRP | 0.931 |
| RRIRERPPRLPRPRPRPSIYPRP | -1 |
| RRIRTRPPRLPRPRPRPHCWPRP | -0.0903 |
| RRIRGRPPRLPRPRPRPVEKPRP | 0.198 |
| RRIRPRPPRLPRPRPRPEKRPRP | 0.0688 |
| RRIRKRPPRLPRPRPRPLRAPRP | 1.23 |
| RRIRDRPPRLPRPRPRPCNTPRP | -0.224 |
| RRIRARPPRLPRPRPRPGRYPRP | 0.54 |
| RRIRIRPPRLPRPRPRPTTFPRP | -0.688 |
| RRIRVRPPRLPRPRPRPFWFPRP | 0.149 |
| RRIRDRPPRLPRPRPRPSKTPRP | 0.0521 |
| RRIRWRPPRLPRPRPRPRFIPRP | -0.00733 |
| RRIRKRPPRLPRPRPRPNMDPRP | -0.0504 |
| RRIRPRPPRLPRPRPRPQREPRP | -0.063 |
| RRIRGRPPRLPRPRPRPDAFPRP | 1.87 |
| RRIRGRPPRLPRPRPRPGGRPRP | 1.09 |
| RRIRQRPPRLPRPRPRPNHRPRP | -0.0657 |
| RRIRLRPPRLPRPRPRPGERPRP | 0.33 |
